From IntAct's records for PubMed 17360471

Molecular target: sgk1_human SGK1 (UniProt O00141)
Sequence (O00141 whole entry): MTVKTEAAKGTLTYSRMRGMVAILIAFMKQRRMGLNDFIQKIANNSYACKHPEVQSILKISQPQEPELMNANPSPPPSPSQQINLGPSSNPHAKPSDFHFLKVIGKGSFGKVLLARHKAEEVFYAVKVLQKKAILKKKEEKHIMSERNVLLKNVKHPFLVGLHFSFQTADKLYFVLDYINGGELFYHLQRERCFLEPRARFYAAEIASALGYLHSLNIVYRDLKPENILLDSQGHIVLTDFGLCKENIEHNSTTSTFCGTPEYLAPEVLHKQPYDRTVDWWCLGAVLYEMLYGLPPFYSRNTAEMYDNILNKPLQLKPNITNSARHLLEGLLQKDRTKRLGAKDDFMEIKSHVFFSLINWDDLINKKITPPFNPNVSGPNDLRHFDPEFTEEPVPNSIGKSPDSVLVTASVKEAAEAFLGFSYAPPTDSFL

In the case of “Serine/threonine-protein kinase WNK4 (Mus musculus), Q80UE6 S1169D”, the “effect of a mutation on the interaction” value is reported as “decreasing interaction strength”.

With “Serine/threonine-protein kinase WNK4 (Mus musculus), Q80UE6 Q562E” the “effect of a mutation on the interaction” value was “decreasing interaction strength”.
